{"source": "paper PMC7526519", "about": "(2020)", "key": {"[1]": {"biological_target": "SARS-CoV receptor binding domain (RBD), His-tagged (SARS-CoV, UniProt P59594 306-527)", "test": "SPR"}, "[2]": {"biological_target": "SARS-CoV-2 receptor binding domain (RBD), His-tagged (SARS-CoV-2, UniProt P0DTC2 319-541)", "test": "SPR"}}}
{"binder": "goat ACE2 ectodomain fused with mouse Fc (Fc fusion) QSTTEEQAKTFLEKFNHEAEDLSYQSSLASWNYNTNITDENVQKMNEARAKWSAFYEEQSRMARTYSLEEIQNLTLKRQLKALQHSGTSVLSAEKSKRLNMILNKMSTIYSTGKVLDPNTQECLALEPGLDDIMENSRDYNRRLWAWEGWRAEVGKQLRPLYEEYVVLENEMARANNYEDYGDYWRGDYEVTGAGDYDYSRDQLMKDVERTFAEIKPLYEQLHAYVRAKLMNTYPSYISPTGCLPAHLLGDMWGRFWTNLYSLTVPFEHKPSIDVTEKMKNQSWDAERIFKEAEKFFVSIGLPYMTQGFWNNSMLTEPGDGRKVVCHPTAWDLGKGDFRIKMCTKVTMDDFLTAHHEMGHIQYDMAYATQPYLLRNGANEGFHEAVGEIMSLSAATPHYLKALGLLAPDFYEDNETEINFLLKQALTIVGTLPFTYMLEKWRWMVFKGEIPKQQWMEKWWEMKREIVGVVEPLPHDETYCDPACLFHVAEDYSFIRYYTRTIYQFQFHEALCKTAKHEGALFKCDISNSTEAGQRLLQMLRLGKSEPWTLALENIVGIKTMDVKPLLNYFEPLFTWLKEQNRNSFVGWSTEWTPYSDQSIKVRISLKSALGENAYEWNDNEMYLFRSSVAYAMRKYFLEDRNETIPFGEENVWVSDKKPRISFKFFVTSPNNVSDIIPRTEVENAIRLCRDRINDAFQLDDNSLEFLGIQPTLRPPYEPPVT", "values": [{"measurement": "Kd", "setting": "[1]", "result": 308, "unit": "nM"}, {"measurement": "Kd", "setting": "[2]", "result": 157, "unit": "nM"}]}
{"binder": "sheep ACE2 ectodomain fused with mouse Fc (Fc fusion) QSTTEGQAKTFLEKFNHEAEDLSYQSSLASWNYNTNITDENVQKMNEARAKWSAFYEEQSRMARTYSLEEIQNLTLKRQLKALQHSGTSVLSAEKSKRLNTILNKMSTIYSTGKVLDPNTQECLALEPGLDDIMENSRDYNRRLWAWEGWRAEVGKQLRPLYEEYVVLENEMARANNYEDYGDYWRGDYEVTGAGDYDYSRDQLMKDVERTFEEIKPLYEQLHAYVRAKLMDTYPSYISPTGCLPAHLLGDMWGRFWTNLYSLTVPFEHKPSIDVTEKMKNQSWDAERIFKEAEKFFVSIGLPYMTQGFWDNSMLTEPGDGRKVVCHPTAWDLGKGDFRIKMCTKVTMDDFLTAHHEMGHIQYDMAYATQPYLLRNGANEGFHEAVGEIMSLSAATPHYLKALGLLAPDFYEDNETEINFLLKQALTIVGTLPFTYMLEKWRWMVFKGEIPKQQWMEKWWEMKREIVGVVEPLPHDETYCDPACLFHVAEDYSFIRYYTRTIYQFQFHEALCKTAKHEGALFKCDISNSTEAGQRLLQMLRLGKSEPWTLALENIVGIKTMDVKPLLNYFEPLFTWLKEQNRNSFVGWSTEWTPYSDQSIKVRISLKSALGENAYEWNDNEMYLFRSSVAYAMRKYFLKERNETIPFGEENVWVSDKKPRISFKFFVTSPNNVSDIIPRTEVENAIRLCRDRINDAFQLDDNSLEFLGIQPTLRPPYEPPVT", "values": [{"measurement": "Kd", "setting": "[1]", "result": 157, "unit": "nM"}, {"measurement": "Kd", "setting": "[2]", "result": 137, "unit": "nM"}]}
{"binder": "bovine ACE2 ectodomain fused with mouse Fc (Fc fusion) QSTTEEQAKTFLEKFNHEAEDLSYQSSLASWNYNTNITDENVQKMNEARAKWSAFYEEQSRMAKTYSLEEIQNLTLKRQLKALQHSGTSALSAEKSKRLNTILNKMSTIYSTGKVLDPNTQECLALEPGLDDIMENSRDYNRRLWAWEGWRAEVGKQLRPLYEEYVVLENEMARANNYEDYGDYWRGDYEVTGAGDYDYSRDQLMKDVERTFAEIKPLYEQLHAYVRAKLMHTYPSYISPTGCLPAHLLGDMWGRFWTNLYSLTVPFEHKPSIDVTEKMENQSWDAERIFKEAEKFFVSISLPYMTQGFWDNSMLTEPGDGRKVVCHPTAWDLGKGDFRIKMCTKVTMDDFLTAHHEMGHIQYDMAYAAQPYLLRNGANEGFHEAVGEIMSLSAATPHYLKALGLLAPDFHEDNETEINFLLKQALTIVGTLPFTYMLEKWRWMVFKGEIPKQQWMEKWWEMKREIVGVVEPLPHDETYCDPACLFHVAEDYSFIRYYTRTIYQFQFHEALCKTAKHEGALFKCDISNSTEAGQRLLQMLRLGKSEPWTLALENIVGIKTMDVKPLLNYFEPLFTWLKEQNRNSFVGWSTEWTPYSDQSIKVRISLKSALGENAYEWNDNEMYLFQSSVAYAMRKYFSEARNETVLFGEDNVWVSDKKPRISFKFFVTSPNNVSDIIPRTEVENAIRLSRDRINDVFQLDDNSLEFLGIQPTLGPPYEPPVT", "values": [{"measurement": "Kd", "setting": "[1]", "result": 89.8, "unit": "nM"}, {"measurement": "Kd", "setting": "[2]", "result": 73.7, "unit": "nM"}]}
{"binder": "monkey ACE2 ectodomain fused with mouse Fc (Fc fusion) QSTIEEQAKTFLDKFNHEAEDLFYQSSLASWNYNTNITEENVQNMNNAGEKWSAFLKEQSTLAQMYPLQEIQNLTVKLQLQALQQNGSSVLSEDKSKRLNTILNTMSTIYSTGKVCNPNNPQECLLLDPGLNEIMEKSLDYNERLWAWEGWRSEVGKQLRPLYEEYVVLKNEMARANHYKDYGDYWRGNYEVNGVDGYDYNRDQLIEDVERTFEEIKPLYEHLHAYVRAKLMNAYPSYISPTGCLPAHLLGDMWGRFWTNLYSLTVPFGQKPNIDVTDAMVNQAWNAQRIFKEAEKFFVSVGLPNMTQGFWENSMLTDPGNVQKVVCHPTAWDLGKGDFRIIMCTKVTMDDFLTAHHEMGHIQYDMAYAAQPFLLRNGANEGFHEAVGEIMSLSAATPKHLKSIGLLSPDFQEDNETEINFLLKQALTIVGTLPFTYMLEKWRWMVFKGEIPKDQWMKKWWEMKREIVGVVEPVPHDETYCDPASLFHVSNDYSFIRYYTRTLYQFQFQEALCQAAKHEGPLHKCDISNSTEAGQKLLNMLKLGKSEPWTLALENVVGAKNMNVRPLLNYFEPLFTWLKDQNKNSFVGWSTDWSPYADQSIKVRISLKSALGDKAYEWNDNEMYLFRSSVAYAMRTYFLEIKHQTILFGEEDVRVADLKPRISFNFYVTAPKNVSDIIPRTEVEEAIRISRSRINDAFRLNDNSLEFLGIQTTLAPPYQSPVT", "values": [{"measurement": "Kd", "setting": "[1]", "result": 69.1, "unit": "nM"}, {"measurement": "Kd", "setting": "[2]", "result": 21.7, "unit": "nM"}]}
{"binder": "raccoon dog ACE2 ectodomain fused with mouse Fc (Fc fusion) QSTEDLVNTFLEKFNYEAEELSYQSSLASWNYNTNITDENLQKMNNAGAKWSAFYEEQSKLAKTYPLEEIQDSTVKRQLRALQHSGSSVLSADKNQRLNTILNSMSTIYSTGKACNPSNPQECLLLEPGLDDIMENSKDYNERLWAWEGWRSEVGKQLRPLYEEYVALKNEMARANNYEDYGDYWRGDYEEEWENGYNYSRNQLIDDVEHTFTQIMPLYQHLHAYVRTKLMDTYPSYISPTGCLPAHLLGDMWGRFWTNLYPLTVPFGQKPNIDVTNAMVNQSWDARKIFKEAEKFFVSVGLPNMTQGFWENSMLTEPSDSWKVVCHPTAWDLGRGDFRIKMCTKVTMDDFLTAHHEMGHIQYDMAYAAQPFLLRNGANEGFHEAVGEIMSLSAATPNHLKNIGLLPPSFFEDSETEINFLLKQALTIVGTLPFTYMLEKWRWMVFKGEIPKDQWMKTWWEMKRNIVGVVEPVPHDETYCDPASLFHVANDYSFIRYYTRTIYQFQFQEALCQIAKHEGPLHKCDISNSSEAGQKLLEMLKLGKSKPWTYALEIVVGAKNMDVRPLLNYFEPLFTWLKEQNRNSFVGWNTDWSPYADQSIKVRISLKSALGEKAYEWNNNEMYLFRSSIAYAMRQYFSEVKNQTIPFVEDNVWVSDLKPRISFNFFVTSPGNVSDIIPRTEVEEAIRMYRSRINDVFRLDDNSLEFLGIQPTLGPPYEPPVT", "values": [{"measurement": "Kd", "setting": "[1]", "result": 179, "unit": "nM"}, {"measurement": "Kd", "setting": "[2]", "result": 96.4, "unit": "nM"}]}
{"binder": "rabbit ACE2 ectodomain fused with mouse Fc (Fc fusion) QSTIEELAKTFLEKFNQEAEDLSYQSALASWDYNTNITEENVQKMNDAEAKWSAFYEEQSKLAKTYPSQEVQNLTVKRQLQALQQSGSSALSADKSKQLNTILSTMSTIYSTGKVCNQSNPQECFLLEPGLDEIMAKSTDYNERLWAWEGWRSVVGKQLRPLYEEYVVLKNEMARANNYEDYGDYWRADYEAEGADGYDYSRSQLIDDVERTFSEIKPLYEQLHAFVRTKLMDAYPSRISPTGCLPAHLLGDMWGRFWTNLYSLTVPFGQKPNIDVTDTMVNQGWDAERIFKEAEKFFVSVGLPSMTQGFWENSMLTEPGDGRKVVCHPTAWDLGKGDFRIKMCTKVTMDNFLTAHHEMGHIQYDMAYATQPFLLRNGANEGFHEAVGEIMSLSAATPEHLKSIGLLPYDFHEDNETEINFLLKQALTIVGTLPFTYMLEKWRWMVFKGEIPKEQWMQKWWEMKREIVGVVEPMPHDETYCDPAALFHVANDYSFIRYYTRTIYQFQFQEALCQAAQHEGPLHKCDISNSTEAGQKLLNMLRLGRSEPWTLALENVVGAKNMDVRPLLNYFEPLFTWLKEQNRNSFVGWSTEWTPYADQSIKVRISLKTALGDQAYEWNDSEMYLFRSSVAYAMRKYFSEVKNQTILFGEEDVRVSDLKPRISFNFFVTAPNNVNDIIPRNEVEEAISMSRSRINDIFRLDDNSLEFVGIQPTLEPPYESPVP", "values": [{"measurement": "Kd", "setting": "[1]", "result": 74.8, "unit": "nM"}, {"measurement": "Kd", "setting": "[2]", "result": 76.2, "unit": "nM"}]}
{"binder": "pig ACE2 ectodomain fused with mouse Fc (Fc fusion) QSTTEELAKTFLEKFNLEAEDLAYQSSLASWNYNTNITDENIQKMNDARAKWSAFYEEQSRIAKTYPLDEIQTLILKRQLQALQQSGTSGLSADKSKRLNTILNTMSTIYSSGKVLDPNNPQECLVLEPGLDEIMENSKDYSRRLWAWESWRAEVGKQLRPLYEEYVVLENEMARANNYEDYGDYWRGDYEVTGTGDYDYSRNQLMEDVERTFAEIKPLYEHLHAYVRAKLMDAYPSRISPTGCLPAHLLGDMWGRFWTNLYPLTVPFGEKPSIDVTEAMVNQSWDAIRIFEEAEKFFVSIGLPNMTQGFWNNSMLTEPGDGRKVVCHPTAWDLGKGDFRIKMCTKVTMDDFLTAHHEMGHIQYDMAYAIQPYLLRNGANEGFHEAVGEIMSLSAATPHYLKALGLLPPDFYEDSETEINFLLKQALTIVGTLPFTYMLEKWRWMVFKGEIPKEQWMQKWWEMKREIVGVVEPLPHDETYCDPACLFHVAEDYSFIRYYTRTIYQFQFHEALCRTAKHEGPLYKCDISNSTEAGQKLLQMLSLGKSEPWTLALENIVGVKTMDVKPLLSYFEPLLTWLKAQNGNSSVGWNTDWTPYADQSIKVRISLKSALGKEAYEWNDNEMYLFRSSIAYAMRNYFSSAKNETIPFGAEDVWVSDLKPRISFNFFVTSPANMSDIIPRSDVEKAISMSRSRINDAFRLDDNTLEFLGIQPTLGPPDEPPVT", "values": [{"measurement": "Kd", "setting": "[1]", "result": 35.8, "unit": "nM"}, {"measurement": "Kd", "setting": "[2]", "result": 47.6, "unit": "nM"}]}
